The text below walks through data of patent US10806913B2, “Methods for better delivery of active agents to tumors” (Sorrento Therapeutics, Inc., priority 2015, dated 2020).

Entries after “also recorded” stand apart in the source; their conditions may differ.

Data set [1] can be described thus: Blood serum absorption rate after delivery to the skin. The note with it: skin administration compared to i.v., s.c. or i.d.; FIG. 14. The data set is classed as in vivo.
Data set [2] is described as follows: Biodistribution across tissue types after delivery to the skin. The data set is classed as in vivo, rats. The note with it: skin delivery compared to i.v., s.c. or i.d., FIG. 13. An excerpt: The biodistribution of etanercept across multiple tissues types following delivery was investigated.
The nature of data set [3]: In vivo near infrared imaging of lymphatic delivery after administration to the skin. As to conditions: fluorescently tagged, needle array placed dorsally, FIG. 11 and 12. Also on record: species or system rats. As for the experimental part: The ability to deliver the protein therapeutic Etanercept directly to the lymphatic system via administration to the skin was tested. Etanercept was fluorescently tagged for in vivo visualization using near infrared light as previous described, see Sevick-Muraca et al., J. Clin Invest., 124(3), 905-914 (2014), which is incorporated by reference herein for its teachings thereof. Etanercept was administered to the skin of rats by μlacing a delivery device comprising an array of needles dorsally on the rats.

Consider Etanercept, for which the “blood serum absorption rate” value in data set [1] was “approximately the same”. In addition, the “levels within the axillary and inguinal lymph nodes” value in data set [2] is on record as “much higher levels”; in data set [2] (listed as Etanercept), “increased delivery to the lymph nodes”. Further, the “lymphatic uptake and distribution to lymph nodes” value in data set [3] is “uptake by the lymphatic vasculature and subsequent distribution to primary and secondary lymph node tissues”; in data set [3] (listed as Etanercept), “delivery directly to the lymphatic vasculature and lymph node tissues; also recorded: delivery to the axillary and mandibular lymph nodes”.
